Test results: PMC5667935, “AMPylation targets the rate-limiting step of BiP’s ATPase cycle for its functional inactivation” (eLife, 2017)

What was measured:
[1] = target: wildtype Chinese hamster BiP, unmodified (BiP^WT) (UniProt G3I8R9); assay: BLI; conditions: trace 3; association in presence of ATP; signal at end of association step (20 min); parent is trace 1; parent: est. 4.2; read off a plot
[2] = target: AMPylated wildtype Chinese hamster BiP (BiP^WT-AMP) (UniProt G3I8R9); assay: BLI; conditions: trace 6; AMPylated BiP WT; association in presence of ATP; signal at end of association step (20 min); parent is trace 4; parent: est. 0.95; read off a plot
[3] = target: wildtype Chinese hamster BiP, unmodified (BiP^WT) (Chinese hamster (Cricetulus griseus)) (UniProt G3I8R9)
[4] = target: T1, Chinese hamster BiP T229A-V461F double mutant (BiP^T229A-V461F), unmodified (Chinese hamster (Cricetulus griseus), UniProt G3I8R9 19-654, T229A | V461F); assay: BLI; Octet RED96, streptavidin sensors saturated with biotinylated GST-J (no P15); BiP^T229A-V461F at different concentrations in solution, 1 mM ATP in baseline, association and dissociation; HKM with 0.05% Triton X-100, 24°C; KD from steady state binding signals; binding sensitive to increasing KCl; conditions: both partners purified
T1 construct: BiP (Grp78), Chinese hamster (Cricetulus griseus); Construct limits: see note of m1; source: E. coli M15, purified (Ni-NTA)

[5] = target: T2, AMPylated Chinese hamster BiP T229A-V461F double mutant (AMPylated BiP^T229A-V461F) (Chinese hamster (Cricetulus griseus), UniProt G3I8R9 19-654, T229A | V461F, AMP on threonine 518 (T518-AMP)); assay: as above; conditions: both partners purified
T2 construct: BiP (Grp78), Chinese hamster (Cricetulus griseus); Construct limits: see note of m1; source: E. coli M15, purified (Ni-NTA)

[6] = target: T3, wildtype Chinese hamster BiP, unmodified (BiP^WT) (Chinese hamster (Cricetulus griseus), UniProt G3I8R9 19-654); assay: BLI; Octet RED96, streptavidin sensors with biotinylated GST-J (to 0.4 nm) then saturated with biotinylated P15; BiP 15 µM in HKM with 0.05% Triton X-100 and 2 mM ATP for association; dissociation in protein-free solution with 2 mM ADP or ATP; 24°C; one-phase decay fit of the dissociation; conditions: both partners purified
T3 construct: BiP (Grp78), Chinese hamster (Cricetulus griseus); also called Grp78; haBiP; source: E. coli M15, purified (Ni-NTA); unmodified control from mock AMPylation reactions without enzyme

[7] = target: T4, Chinese hamster BiP T518E mutant (BiP^T518E) (Chinese hamster (Cricetulus griseus), UniProt G3I8R9 19-654, T518E); assay: as above; conditions: both partners purified
T4 construct: BiP (Grp78), Chinese hamster (Cricetulus griseus); Mimics aspects of AMPylation; Construct limits: see note of m1; source: E. coli M15, purified (Ni-NTA)

[8] = target: T5, AMPylated wildtype Chinese hamster BiP (BiP^WT-AMP) (Chinese hamster (Cricetulus griseus), UniProt G3I8R9 19-654, AMP on threonine 518 (T518-AMP)); assay: as above; conditions: both partners purified
T5 construct: BiP (Grp78), Chinese hamster (Cricetulus griseus); Same construct as m1, AMPylated at high stoichiometry (intact mass spectrometry); Construct limits: see note of m1; also called BiP-AMP; AMPylated BiP; source: E. coli M15, purified (Ni-NTA)
T5 sequence (G3I8R9 19-654): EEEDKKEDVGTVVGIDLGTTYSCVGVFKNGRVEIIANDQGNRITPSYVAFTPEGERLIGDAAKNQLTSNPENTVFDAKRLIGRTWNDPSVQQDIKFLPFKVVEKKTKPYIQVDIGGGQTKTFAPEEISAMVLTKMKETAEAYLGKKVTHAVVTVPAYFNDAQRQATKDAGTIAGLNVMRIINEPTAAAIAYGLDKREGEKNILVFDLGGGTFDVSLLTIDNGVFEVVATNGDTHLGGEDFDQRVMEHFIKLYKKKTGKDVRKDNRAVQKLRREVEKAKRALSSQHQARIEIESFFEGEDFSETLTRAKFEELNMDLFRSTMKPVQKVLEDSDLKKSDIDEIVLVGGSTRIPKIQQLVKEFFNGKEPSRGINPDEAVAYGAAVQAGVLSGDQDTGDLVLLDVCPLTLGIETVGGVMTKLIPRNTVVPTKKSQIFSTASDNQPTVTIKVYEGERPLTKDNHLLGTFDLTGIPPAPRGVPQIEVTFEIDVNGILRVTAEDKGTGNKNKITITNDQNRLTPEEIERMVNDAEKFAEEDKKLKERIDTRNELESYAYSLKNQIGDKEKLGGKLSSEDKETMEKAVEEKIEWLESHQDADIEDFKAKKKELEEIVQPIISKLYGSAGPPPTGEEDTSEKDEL

T3 sequence (G3I8R9 19-654): as above
Chain of wildtype Chinese hamster BiP, unmodified (BiP^WT) (Chinese hamster (Cricetulus griseus)) (G3I8R9 19-654): as above
T1 sequence (G3I8R9 19-654 T229A/V461F): as the sequence (G3I8R9 19-654) above, with T211A, V443F counted along it
T2 sequence (G3I8R9 19-654 T229A/V461F): as the sequence (G3I8R9 19-654) above, with T211A, V443F counted along it
T4 sequence (G3I8R9 19-654 T518E): as the sequence (G3I8R9 19-654) above, with T500E counted along it

Work on “biotinylated GST-J^WT and biotinylated P15 substrate peptide co-immobilized on a streptavidin BLI sensor (from UniProt Q91YW3) H422Q” yielded a response [1] of 0.14 nm and a response [2] of 0.1 nm.

In the case of “wildtype J-domain of mouse P58/ERdj6 (residues 384-470) fused to GST (GST-J^WT) (from UniProt Q91YW3 384-470) (domain or fragment)”, the rate of ATP hydrolysis by BiP in a single-turnover ATPase assay with wildtype GST-J (2 µM) compared with non-functional GST-J^QPD [3] is reported as > 4 fold.

B1: wildtype J-domain of mouse P58/ERdj6 (residues 384-470) fused to GST (GST-J^WT) (domain or fragment, UniProt Q91YW3 384-470, looked up)
chain: QRLLKQSQKRDYYKILGVKRNAKKQEIIKAYRKLALQWHPDNFQNEEEKKKAEKKFIDIAAAKEVLSDPEMRKKFDDGEDPLDAESQ
modifications: biotinylated with Biotin-maleimide for the BLI experiments (a fraction of the purified protein); not biotinylated in pull-down, SEC and ATPase assays
notes: J-domain of P58/ERdj6, mouse, residues 384-470; also called model J-domain
B1 was tested, and the Kd [4] was ~14 µM and the Kd [5] was ~14 µM.

B2: biotinylated GST-J^WT and biotinylated P15 substrate peptide co-immobilized on a streptavidin BLI sensor (other, mouse)
chain: B1 chain
peptide: ALLLSAPRRGAGKK
modifications: biotinylated with Biotin-maleimide | biotinylated on the C-terminal lysine
notes: J-domain of P58/ERdj6, mouse, residues 384-470; P15 model BiP substrate peptide (Misselwitz et al., 1998); Not a complex: two separately biotinylated ligands on one sensor surface (GST-J to ~0.4 nm signal, then saturation with P15); the signal is not divided among them; also called sensors carrying GST-J^WT and P15; GST-J^WT-coupled sensors; source: GST-J^WT: purified GST-fusion protein, …
B2 showed a koff [6] of 0.00079 s⁻¹, a koff [7] of 0.00165 s⁻¹ and a koff [8] of 0.00329 s⁻¹.
